Results on four molecules are retold here after doi:10.1101/2025.02.26.640323, “Aggregation-Dependent Epitope Sequence and Modification Fingerprints of Anti-Aβ Antibodies” (bioRxiv, 2025).

Data set [1] in a line: Isoelectric point on CIEF immunoassay. The data set is classed as physicochemical. The conditions noted are these: Peggy Sue. As to the method:
Automated capillary isoelectric focusing immunoassays were performed with a Peggy-Sue system (ProteinSimple,San Jose, California, USA), essentially as previously described and [53].
In brief, synthetic Aβ peptide variants were separated by isoelectric focusing in microcapillaries followed by photochemical immobilization to the inner capillary walls and probing with the primary antibodies for 120 min. After 2 washes, the horseradish peroxidase conjugated secondary antibodies were loaded and incubated for 60 min. After two washing steps, a luminol/peroxide mix was loaded, and chemiluminescent signals were recorded. The data was analyzed with the Compass for SW software. The following secondary antibodies were used: Anti-human IgG Secondary HRP antibody (Protein Simple, catalog number 043–491), Goat-Anti-Mouse-HRP Secondary Antibody ProteinSimple, catalog number 040–655) and Peroxidase-conjugated Affini Pure Donkey Anti-Human IgG (H+L) (1:100 dilution) (Jackson ImmunoResearch Laboratories Inc., West Grove, PA, code number 709–035-149).

Data set [2] has as its system amyloid precursor protein (APP770) residues 649–722. Briefly: Peptide microarray epitope pre-screening (overlapping 15-mers). The format is binding, human. Particulars: Aβ residue numbers; 15-mer peptides overlapping by 14AAs on cellulose conjugates, 0.5–1 μg/mL antibody, chemiluminescence. As to the method: Information regarding binding epitopes and /or immunogens for most of the tested Aβ-Abs has been published and is summarized in Table 1. However, the binding epitope information was derived from varying methodologies. To provide an initial side-by-side comparison we pre-screened all of the listed Aβ-Abs in array format using copies of peptide libraries and standard antibody concentrations of 0.5–1 μg/mL (Figure 1a). The library comprised the amyloid precursor protein (APP770) residues 649–722, corresponding to the canonical Aβ1–42 amino acid sequence with additional 23 amino terminal and 9 carboxy terminal residues. […] For optimal signal to noise ratios and ideal selectivity profiles on the microarrays, the Aβ-Ab concentrations were adjusted for 3D6, 82E1, 11H3, 80C2 and 7H3D6 (Figure 1 – figure- supplement 1) and (Appendix 1–7). […] Specifically, Donanemabbs, 2–48 and Aβ-pE3 were raised against AβpE3-x (Table 1) and were expected to show preference for Aβ peptides starting with a pE(3).
Figure 1. Microarray workflow and Aβ-Ab epitope pre-screening. (a) Schematic of the microarray workflow. The library comprised the amyloid precursor protein (APP) residues 649–722 (APP770 numbering), corresponding to Aβ residues −23 to 51, as a library of 15-mer peptides overlapping by 14AAs, copied in dozens, and probed for Aβ-Abs binding followed by analysis in MARTin. (b) The epitope screening binding data are summarized as a heatmap. Blue and red shades indicate the relative binding strength of the related arrayed peptides to the left and cognate Aβ-Ab on top. The blue – red scale is visualizing the normalized binding intensity for each antibody individually. The applied antibody concentrations ranged between 0.5–1 μg/mL.
The μSPOT assay was performed as previously described. […] Peptide arrays were synthesized using MultiPep RSi robot (CEM GmbH, Kamp-Lintford, Germany) on cellulose discs containing Fmoc-β-Ala linkers. Natural amino acid building blocks were purchased from IRIS (IRIS Biotech GmbH, Marktredwitz, Germany). Special building blocks employed in this study such as isomers, stereoisomers, phosphorylation and pyroglutamination […] modifications are listed here: Fmoc-L-Ser(PO(OBzl)OH)-OH (Iris – FAA1423), L-Pyroglutamic acid pentachlorophenyl ester (Novabiochem - 8.54203), Fmoc-L-Asp-OtBu (Iris – FAA1356), Fmoc-D-Asp-OtBu (Carbosolutions – CC05095) and Fmoc-D-Asp(tBu)-OH (Iris – FAA1309). Synthesis was carried out by deprotecting the Fmoc-group using 20% piperidine in dimethylformamide (DMF). Peptide chains were elongated using a coupling solution consisting of amino acids (0.5M) with oxyma (1M) and DIC (1M) in DMF (1:1:1). Coupling steps were carried out 3 times (30min), followed by capping (4% acetic anhydride in DMF). Discs were transferred into 96 deep-well plates for the work-up.

The subject of data set [3] is Alzheimer's disease patients. The conditions noted are these: cited from earlier work.
Data set [4] has as its system Aβ. The conditions noted are these: cited from earlier work.

Entries after “also recorded” stand apart in the source; their conditions may differ.

In data set [1], Aβ1–40: synthetic Aβ peptide, AnaSpec displayed a pI of 5.31.

Turning to “Aβ1–42: synthetic Aβ peptide, AnaSpec; monomers, oligomers, fibrils from StressMarq”, the pI entry in data set [1] is recorded as “approx. 5.3”.

“Aβ−3–40: N-terminally elongated Aβ, provided by H.-J. Knölker, Technische Universität Dresden” showed a pI in data set [1] of 6.04.

B1: Lecanemab: designed at Uppsala University, humanized by BioArctic, later licensed to Eisai (antibody, chains of the INN, looked up, V domains shown)
VH: EVQLVESGGGLVQPGGSLRLSCSASGFTFSSFGMHWVRQAPGKGLEWVAYISSGSSTIYYGDTVKGRFTISRDNAKNSLFLQMSSLRAEDTAVYYCAREGGYYYGRSYYTMDYWGQGTTVTVSS
VL: DVVMTQSPLSLPVTPGAPASISCRSSQSIVHSNGNTYLEWYLQKPGQSPKLLIYKVSNRFSGVPDRFSGSGSGTDFTLRISRVEAEDVGIYYCFQGSHVPPTFGPGTKLEIK
In the case of B1, the “Array: epitope identified in this study on microarrays” value in data set [2] is recorded as 3–7. In addition, the ARIA-E frequency in data set [3] (cross-study comparison, ref [38]) is reported as 13%. The “clinical outcome, Clarity AD” value in data set [3] (ref [45],[46]) was “positive results in the Clarity AD trial”. Further, in data set [4] (ref [38],[40],[41],[83]), the “binding to aggregated versus monomeric Aβ” value is “strong preference for Aβ protofibrils and to bind Aβ monomers only weakly; also recorded: preferably bind specific aggregated forms of Aβ over monomeric forms”. In data set [4] (ref [46]), the “preferential binding to fibrillar Aβ” value was “preferential binding to fibrillar Aβ aggregates”.
